pKd: −log10 of the molar value.
Key:
[1] = molecular target: GST-DR4 (residues 269-468) (UniProt O00220); test: GST pull-down on glutathione-Sepharose, immunoblot against input lane
[2] = molecular target: GST-DR4 (residues 269-468) (UniProt O00220); test: Scatchard analysis: DAP3-His6 at 0.1-1 µM with 1.0 µg GST-DR4 on glutathione-Sepharose, free and bound DAP3 by immunoblot densitometry

GST-DR4 (residues 269-468), sequence (O00220 269-468, form in doubt): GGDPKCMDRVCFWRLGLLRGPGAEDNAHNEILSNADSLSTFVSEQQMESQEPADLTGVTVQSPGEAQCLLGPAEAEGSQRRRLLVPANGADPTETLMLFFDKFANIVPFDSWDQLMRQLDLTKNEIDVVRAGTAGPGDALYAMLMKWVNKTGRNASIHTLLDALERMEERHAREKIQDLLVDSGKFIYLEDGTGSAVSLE

Substance: DAP3-His6
- percent of input bound [1]: 10 to 20%
- pKd [2]: 7.80

Source: patent US20030049702A1
